Here are results for four variants from IntAct's records for PubMed 22230954.

The chains are these.
B1: Histone deacetylase 3 (Homo sapiens), O15379 (parent)
chain: MAKTVAYFYDPDVGNFHYGAGHPMKPHRLALTHSLVLHYGLYKKMIVFKPYQASQHDMCRFHSEDYIDFLQRVSPTNMQGFTKSLNAFNVGDDCPVFPGLFEFCSRYTGASLQGATQLNNKICDIAINWAGGLHHAKKFEASGFCYVNDIVIGILELLKYHPRVLYIDIDIHHGDGVQEAFYLTDRVMTVSFHKYGNYFFPGTGDMYEVGAESGRYYCLNVPLRDGIDDQSYKHLFQPVINQVVDFYQPTCIVLQCGADSLGCDRLGCFNLSIRGHGECVEYVKSFNIPLLVLGGGGYTVRNVARCWTYETSLLVEEAISEELPYSEYFEYFAPDFTLHPDVSTRIENQNSRQYLDQIRQTIFENLKMLNHAPSVQIHDVPADLLTYDRTDEADAEERGPEENYSRPEAPNEFYDGDHDNDKESDVEI

In one experiment the parent is B1. Conditions: with ncor2_human NCOR2, Q9Y618.
Sequence of ncor2_human NCOR2, Q9Y618 (Q9Y618 whole entry): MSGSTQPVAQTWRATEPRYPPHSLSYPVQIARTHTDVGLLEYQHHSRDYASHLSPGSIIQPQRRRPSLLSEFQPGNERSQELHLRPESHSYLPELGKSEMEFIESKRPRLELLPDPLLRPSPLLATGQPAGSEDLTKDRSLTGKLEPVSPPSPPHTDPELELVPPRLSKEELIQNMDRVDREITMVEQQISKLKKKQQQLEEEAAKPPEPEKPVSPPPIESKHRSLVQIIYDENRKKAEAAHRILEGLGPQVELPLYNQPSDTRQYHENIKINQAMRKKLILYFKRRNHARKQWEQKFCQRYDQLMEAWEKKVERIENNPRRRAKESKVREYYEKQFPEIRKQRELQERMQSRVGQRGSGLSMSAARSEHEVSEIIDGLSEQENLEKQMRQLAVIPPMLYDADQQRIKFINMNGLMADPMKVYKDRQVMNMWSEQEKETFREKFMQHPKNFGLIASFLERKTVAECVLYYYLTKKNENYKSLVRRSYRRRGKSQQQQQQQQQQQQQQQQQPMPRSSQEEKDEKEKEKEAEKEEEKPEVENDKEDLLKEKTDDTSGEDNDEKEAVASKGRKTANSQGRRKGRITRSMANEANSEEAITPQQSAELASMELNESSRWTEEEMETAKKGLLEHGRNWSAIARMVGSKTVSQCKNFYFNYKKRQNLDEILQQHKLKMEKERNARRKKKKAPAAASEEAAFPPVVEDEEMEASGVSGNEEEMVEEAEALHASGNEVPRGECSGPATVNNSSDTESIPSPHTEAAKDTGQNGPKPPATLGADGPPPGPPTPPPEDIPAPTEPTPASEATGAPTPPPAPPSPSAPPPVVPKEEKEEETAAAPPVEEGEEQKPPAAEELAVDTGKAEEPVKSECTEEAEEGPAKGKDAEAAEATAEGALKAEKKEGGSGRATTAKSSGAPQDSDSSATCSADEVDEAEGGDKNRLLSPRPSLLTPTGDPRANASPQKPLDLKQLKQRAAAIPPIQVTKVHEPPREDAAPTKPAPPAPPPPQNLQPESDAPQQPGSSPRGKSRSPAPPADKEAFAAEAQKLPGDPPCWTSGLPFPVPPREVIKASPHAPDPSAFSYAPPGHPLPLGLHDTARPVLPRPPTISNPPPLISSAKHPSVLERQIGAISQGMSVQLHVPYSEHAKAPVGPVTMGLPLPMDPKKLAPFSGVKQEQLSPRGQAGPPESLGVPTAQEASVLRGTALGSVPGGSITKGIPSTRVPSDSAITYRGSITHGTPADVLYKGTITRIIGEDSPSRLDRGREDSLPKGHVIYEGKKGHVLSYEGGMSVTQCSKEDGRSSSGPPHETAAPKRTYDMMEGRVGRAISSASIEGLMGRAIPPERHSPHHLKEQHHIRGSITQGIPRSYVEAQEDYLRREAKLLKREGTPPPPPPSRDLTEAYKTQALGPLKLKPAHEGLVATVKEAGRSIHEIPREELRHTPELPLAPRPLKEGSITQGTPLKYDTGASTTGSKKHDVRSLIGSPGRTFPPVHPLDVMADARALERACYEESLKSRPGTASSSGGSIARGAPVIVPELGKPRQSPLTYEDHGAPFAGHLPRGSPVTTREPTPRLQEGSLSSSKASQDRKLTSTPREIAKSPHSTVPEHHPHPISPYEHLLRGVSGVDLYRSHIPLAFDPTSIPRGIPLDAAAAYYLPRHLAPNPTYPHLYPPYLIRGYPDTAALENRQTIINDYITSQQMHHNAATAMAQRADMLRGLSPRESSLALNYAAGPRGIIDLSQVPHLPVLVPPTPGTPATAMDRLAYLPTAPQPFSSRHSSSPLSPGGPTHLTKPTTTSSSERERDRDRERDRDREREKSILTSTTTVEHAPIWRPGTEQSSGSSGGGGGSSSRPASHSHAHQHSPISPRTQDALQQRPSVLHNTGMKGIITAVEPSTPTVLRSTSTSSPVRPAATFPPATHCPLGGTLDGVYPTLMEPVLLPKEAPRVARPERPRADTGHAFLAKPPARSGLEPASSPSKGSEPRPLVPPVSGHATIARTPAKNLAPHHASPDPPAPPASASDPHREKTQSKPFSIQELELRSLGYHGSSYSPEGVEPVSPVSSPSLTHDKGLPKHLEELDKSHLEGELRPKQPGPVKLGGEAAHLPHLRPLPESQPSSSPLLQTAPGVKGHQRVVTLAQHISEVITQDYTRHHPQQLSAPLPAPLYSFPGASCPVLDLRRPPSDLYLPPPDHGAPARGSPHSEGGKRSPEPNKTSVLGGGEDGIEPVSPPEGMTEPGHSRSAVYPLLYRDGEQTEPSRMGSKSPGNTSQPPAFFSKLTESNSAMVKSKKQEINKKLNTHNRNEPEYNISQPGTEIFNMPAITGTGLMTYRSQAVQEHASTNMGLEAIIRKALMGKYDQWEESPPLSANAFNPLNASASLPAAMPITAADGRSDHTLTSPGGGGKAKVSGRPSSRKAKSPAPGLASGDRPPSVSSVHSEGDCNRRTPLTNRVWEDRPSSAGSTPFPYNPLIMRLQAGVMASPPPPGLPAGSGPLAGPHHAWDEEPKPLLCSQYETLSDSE
As for R265P, the “effect of a mutation on the interaction” value is listed as “disrupting interaction”. For H17C;G21A;K25I;R265P;L266M, the “effect of a mutation on the interaction” value is given as “disrupting interaction”. The same measure, in the same setting: the same measure for H17C;G21A;K25I: “disrupting interaction”; for R265P;L266M: “disrupting interaction”.

The variants in a further experiment derive from B1. Particulars: with ncor2_human NCOR2, Q9Y618. The source holds these as a separate data set.
As to H17C;G21A;K25I;R265P;L266M, the “effect of a mutation on the interaction” value is given as “disrupting interaction”.
